Biological target: the molecule itself
Test: SEC

B1: WT-Cp149 dimer (HBV core protein residues 1-149) (domain or fragment)
chain: MDIDPYKEFGATVELLSFLPSDFFPSVRDLLDTASALYREALESPEHCSPHHTALRQAILCWGELMTLATWVGVNLEDPASRDLVVSYVNTNMGLKFRQLLWFHISCLTFGRETVIEYLVSFGVWIRTPPAYRPPNAPILSTLPETTVV
notes: source: E. coli NiCo21(DE3), purified
B1: binds.
